Experimental data: patent publication US20220125770A1, “COMBINATION THERAPY OF ALK-POSITIVE NEOPLASIA” (Academisch Medisch Centrum, priority 2019, published 2022)

B1: TRAIL: TNF-related apoptosis-inducing ligand; recombinant soluble human TRAIL (Peprotech; His-tagged for in vivo); also doxycycline-induced transgene in SK-N-AS-TRAIL cells (protein, UniProt P50591 39-281, looked up)
extracellular domain: TNELKQMQDKYSKSGIACFLKEDDSYWDPNDEESMNSPCWQVKWQLRQLVRKMILRTSEETISTVQEKQQNISPLVRERGPQRVAAHITGTRGRSNTLSSPNSKNEKALGRKINSWESSRSGHSFLSNLHLRNGELVIHEKGFYYIYSQTYFRFQEEIKENTKNDKQMVQYIYKYTSYPDPILLMKSARNSCWSKDAEYGLYSIYQGGIFELKENDRIFVSVTNEHLIDMDHEASFFGAFLVG
modifications: extracellular domain His tag
notes: TNF-related apoptosis-inducing ligand; recombinant soluble human TRAIL (Peprotech; His-tagged for in vivo); also doxycycline-induced transgene in SK-N-AS-TRAIL cells

Key:
[1] = system: MES-type neuroblastoma cells; test: Cell viability (MTT) assay, MES-type cells of isogenic cell line pairs; format: cell-based, human
Experimental: […] Seeding densities were optimized for each cell line so that the control, non-treated cells would reach 70-80% confluence by the end of the experiment. […] Metabolic activity was measured by 3-(4,5-dimethylthiazol-2-yl)-2,5-diphenyltetrazolium bromide (MTT) assay, according to the manufacturer's instructions with minor modifications. Sextuple or triplicate measurements were used for each experimental condition. Two-sided t-tests assuming equal variance were used to determine significance. Experiments were repeated at least twice.

[2] = system: ADRN-type neuroblastoma cells; test: Cell viability (MTT) assay, ADRN-type cells of isogenic cell line pairs; format: cell-based, human
Experimental: Cells were plated in 96-well plates, one day before the addition of Lorlatinib (HY-12215, MedChemExpress) and/or TRAIL (Peprotech) to the culture medium. Seeding densities were optimized for each cell line so that the control, non-treated cells would reach 70-80% confluence by the end of the experiment. […] Metabolic activity was measured by 3-(4,5-dimethylthiazol-2-yl)-2,5-diphenyltetrazolium bromide (MTT) assay, according to the manufacturer's instructions with minor modifications. Sextuple or triplicate measurements were used for each experimental condition. Two-sided t-tests assuming equal variance were used to determine significance. Experiments were repeated at least twice.

IMR32 cells (ADRN-type) = test: 3D spheroid co-culture of SK-N-AS-TRAIL cells with IMR32-GFP cells; format: cell-based, human; conditions: doxycycline-induced TRAIL expression, 48 hours, 3D model
Experimental: (§1) Spheroid assays were performed as described^28. A suspension of 10000 cells of 3:1 SKNAS-TRAIL:SH-EP2-GFP or 3:1 SKNAS-TRAIL:IMR32-GFP was added in triplicate to 96 well round bottom suspension plates. After 48 hours incubation with 0 or 300 ng/ml doxycycline bright-field and fluorescent images of the 3D cultures were taken.

SH-SY5Y xenografts = test: SH-SY5Y xenograft tumour growth; format: in vivo, NMRI-Foxn1nu/nu mice; conditions: TRAIL 150 μg/day I.P. 4 weeks; Lorlatinib 5 mg/kg twice a day oral 6 weeks; or both
Experimental: For tumour growth assays, 5×10^6 SH-SY5Y cells were suspended in 200 μl of a 50% Matrigel (BD, 354234) solution in PBS and subcutaneously injected in NMRI-Foxn1nu/nu mice (NKI; Janvier). After tumour outgrowth to around 200-250 mm^3, mice were randomized to control or treatment groups. The control group received 150 μl PBS daily intraperitoneally (I.P.) for 4 weeks (day 1-day 28). The TRAIL group received 150 μg/day through I.P. for 4 weeks (day 1-day 28). The Lorlatinib group received 5 mg/kg twice a day through oral gavage for 6 weeks (day 1-day 42) and 4 weeks (day 29-day 56) of PBS (150 μl/day I.P.). The combination group received Lorlatinib twice a day for 6 weeks (day 1-day 42) and 4 weeks TRAIL (day 29-day 56). Tumour size was measured three times a week. Mice were sacrificed at the humane endpoint (tumor size >1500 mm^3), the tumours were isolated and divided in two parts. One tumour piece was fresh frozen in liquid nitrogen and RNA was isolated using Trizol reagent. The other tumour piece was fixed in 4% (w/v) buffered formaldehyde (Klinipath) and embedded in paraffin for histological analyses. In vivo experiments were conducted at the NKI therapeutical intervention unit after ethical approval from the animal experiments committee of the NKI was obtained (AvD:30100 2015 407 appendix 1; WP8156).

[3] = system: SK-N-SH (ALK-F1174L) and NBL-W (ALK-R1275L) cell lines; test: Cell viability (MTT) assay, cell lines with heterogeneous MES and ADRN composition; format: cell-based, human; conditions: Lorlatinib-only or TRAIL-only (100 ng/ml), 120 hours
Experimental: Seeding densities were optimized for each cell line so that the control, non-treated cells would reach 70-80% confluence by the end of the experiment. […] Metabolic activity was measured by 3-(4,5-dimethylthiazol-2-yl)-2,5-diphenyltetrazolium bromide (MTT) assay, according to the manufacturer's instructions with minor modifications. Sextuple or triplicate measurements were used for each experimental condition. Two-sided t-tests assuming equal variance were used to determine significance. Experiments were repeated at least twice.

SH-EP2 cells (MES-type) = test: 3D spheroid co-culture of SK-N-AS-TRAIL cells with SH-EP2-GFP cells; format: cell-based, human; conditions: doxycycline-induced TRAIL expression, 48 hours, 3D model
Experimental: as §1

SK-N-AS-TRAIL xenografts = test: SK-N-AS-TRAIL xenograft tumour growth; format: in vivo, NMRI-Foxn1nu/nu mice; conditions: TRAIL induced by doxycycline, established tumours 200 mm^3, five-week doxycycline stimulation
Experimental: For the SK-N-AS-TRAIL xenograft experiments, 1×10^6 cells were suspended in 200 μl of a 50% Matrigel solution in PBS and subcutaneously injected in NMRI-Foxn1nu/nu mice. After tumour outgrowth to around 200-250 mm^3, mice were randomized to control or treatment groups. The DOX group was provided drinking water with 200 μg/ml doxycycline. DOX-containing water was refreshed weekly. Control mice received regular drinking water ad lib. Mice were screened regularly to follow tumour formation and were sacrificed before tumour reached 1500 mm^3. All animal experiments were conducted under the institutional guidelines and according to the law and approved in DAG155 by the AMC animal ethics committee.

[4] = system: mixed culture of SH-SY5Y-GFP (ADRN-type) and SH-EP2-RFP (MES-type) cells; test: Flow cytometry of mixed cultures of SH-EP2-RFP and SH-SY5Y-GFP cells; format: cell-based, human; conditions: 120 hours, relative to DMSO control
Experimental: GFP and RFP labelled cells were plated at given densities (see Figure description), collected by trypsin treatment, washed twice with FACS buffer and analysed using flow cytometer (BD biosciences) and BD Accuri C6 software.

SK-N-AS-TRAIL cells = test: Apoptosis of SK-N-AS-TRAIL cells after doxycycline-induced TRAIL expression in vitro; format: cell-based, human; conditions: doxycycline-induced membrane TRAIL expression, 300 ng/ml doxycycline
Experimental: The SK-N-AS cell line with inducible TRAIL expression was generated by cloning human TRAIL from pUNO1-hTRAILa vector (InvivoGen) into the lentiviral pINDUCER (pIND) system (Invitrogen). Expression of the TRAIL transgene was induced by the addition of doxycycline to the culture medium at a final concentration of 300 ng/ml. SH-SY5Y-GFP, IMR-GFP and SH-EP2-GFP were generated by lentiviral (pLenti, Invitrogen) transduction of turboGFP (SHC003, Sigma) and SH-EP2-RFP by lentiviral (pLenti, invitrogen) transduction of near-infrared fluorescent protein NirFP (Evrogen). […]
To determine the effect of doxycycline-induced TRAIL expression on SK-N-AS cells, 150.000 SK-N-AS-TRAIL cells were seeded in triplicate in 6 well/plates in 2 ml medium supplemented with or without 300 ng/ml doxycycline. Cell number was determined using a coulter counter (Beckman) at every 3rd or 4th day and cells were reseeded at similar cell number as at the start until the end of the experiment. The proliferation factor was defined as the ratio of the cells counted and the cells plated.
Sub-G1 fractions were determined after 72 hours treatment with 300 ng/ml doxycycline. […] After 1 hour incubation, DNA content of the nuclei was analysed using a Accuri C6 flow cytometer (BD biosciences). The cell cycle distribution and apoptotic sub G1 fraction was determined using BD Accuri C6 software.

Molecule | Sensitivity to Alectinib (cell survival) ([1]; isogenic pair with mutant ALK, MES-type cells, 120 hours) | Sensitivity to Alectinib (cell survival) ([2]; isogenic pair with mutant ALK, ADRN-type cells, 120 hours) | Killing of co-cultured ADRN-type IMR32 cells (IMR32 cells (ADRN-type)) | Tumour growth response during treatment (SH-SY5Y xenografts) | Cell killing by single-agent treatment [3] | Killing of co-cultured MES-type SH-EP2 cells (SH-EP2 cells (MES-type)) | Tumour response of established tumours (SK-N-AS-TRAIL xenografts) | Sensitivity to TRAIL (cell viability) ([1]; four isogenic pairs, MES cells, 72 hours of TRAIL treatment) | Effect on ADRN population (SH-SY5Y-GFP) ([4]; Lorlatinib 5 μM or TRAIL 100 ng/ml) | Effect on MES population (SH-EP2-RFP) ([4]; TRAIL 100 ng/ml) | Sensitivity to TRAIL (cell viability) ([2]; four isogenic pairs, ADRN cells, 72 hours of TRAIL treatment) | Apoptosis of SK-N-AS-TRAIL cells (SK-N-AS-TRAIL cells)
CCc1cc2c(cc1N1CCC(N3CCOCC3)CC1)C(C)(C)c1[nH]c3cc(C#N)ccc3c1C2=O [Alectinib, reference compound] | resistance | preferential killing |  |  |  |  |  |  |  |  |  | 
B1 |  |  | not | did not inhibit tumour growth | partly killed | killed | complete regression | efficiently killed | reduction of the ADRN population | strongly reduced | unaffected | apoptosis of a large proportion of the cells
